Measurements: patent US20230056252A1 (Gilead, published 2023)

Assays:
[1] = target: T1, CD3 expressed on cell-surface of primary human T cells (human, UniProt P07766 23-207; P04234 22-171); assay: flow cytometry competition vs murine SP34-AF488 on human T cells, n = 1
T1 construct: also called cell-surface CD3; human CD3
Method: (§1) Binding of humanized SP34 Fab variants to CD3 expressed on cell-surface of primary human T cells was evaluated in a flow cytometry-based competition assay.

[2] = target: T1, CD3 expressed on cell-surface of …; assay: flow cytometry competition vs murine SP34-AF488 on human T cells, n = 2
Method: as §1

[3] = target: T1, CD3 expressed on cell-surface of …; assay: flow cytometry competition vs murine SP34-AF488 on human T cells, n = 1; remark: listed apart in the source
Method: as §1
(§2) A second round of huSP34 Fab variants were characterized using the same flow cytometry-based competition assay as described above.

[4] = target: T1, CD3 expressed on cell-surface of …; assay: flow cytometry competition vs murine SP34-AF488 on human T cells, average
Method: as §1, §2

[5] = target: T1, CD3 expressed on cell-surface of …; assay: flow cytometry competition vs murine SP34-AF488 on human T cells, n = 2; remark: listed apart in the source
Method: as §1, §2

T1 sequence (P07766 23-207 limits assumed, chain 1 of 2): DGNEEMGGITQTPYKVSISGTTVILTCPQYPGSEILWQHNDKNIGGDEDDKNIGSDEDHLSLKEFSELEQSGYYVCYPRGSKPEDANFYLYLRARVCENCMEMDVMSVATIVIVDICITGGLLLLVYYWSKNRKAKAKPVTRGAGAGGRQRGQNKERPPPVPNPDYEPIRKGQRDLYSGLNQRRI
T1 sequence (P04234 22-171 limits assumed, chain 2 of 2): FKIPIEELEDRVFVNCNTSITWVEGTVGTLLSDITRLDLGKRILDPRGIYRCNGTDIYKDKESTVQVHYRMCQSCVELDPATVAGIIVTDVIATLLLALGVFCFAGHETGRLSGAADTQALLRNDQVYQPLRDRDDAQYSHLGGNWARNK

Binder | IC50 [1] | IC50 [2] | IC50 [3] | IC50 [4] | IC50 [5]
huSP34.2.4 Fab-HF (Fab, V domains shown) VH: EVQLVESGGGLVQPGGSLRLSCAASGFTFSTYAMNWVRQAPGKGLEWVGRIRSKYNNYATYYAASVKGRFTISRDDSKNSLYLQMNSLKTEDTAMYYCVRHGNFGNSYVSWFAVWGQGTLVTVSS VL: QAVVTQEPSLTVSPGGTVTLTCGSSTGAVTTSHYANWVQQKPGQAPRGLIGGTSKRAPWTPARFSGSLLGGKAALTLSGAQPEDEAEYYCALWYSALWVFGGGTKLTVL | > 20 µg/mL | > 20 µg/mL |  |  | 
huSP34.5.6 Fab-HF (Fab, V domains shown) VH: EVQLVESGGGLVQPGGSLRLSCAASGFTFSTYAMNWVRQAPGKGLEWVGRIRSKYNNYATYYADSVKGRFTISRDNSKNTLYLQMNSLRAEDTAVYYCVRHGNFGHSYVSWFAVWGQGTLVTVSS VL: QAVVTQPPSLTVSPGGTVTLTCGSSTGAVTTGHYANWVQQKPGQAPRGLIGGTSNRAPGVPARFSGSLSGGKAALTISGAQPEDEAEYYCALWYSARWVFGGGTKLTVL | > 20 µg/mL | > 20 µg/mL |  |  | 
huSP34.4.5 Fab-HF (Fab, V domains shown) VH: EVQLVESGGGLVQPGGSLRLSCAASGFTFSTYAMNWVRQAPGKGLEWVGRIRSKYNNYATYYAASVKGRFTISRDDSKNSLYLQMNSLRTEDTAVYYCVRHGNFGHSYVSWFAVWGQGTLVTVSS VL: QAVVTQEPSLTVSPGGTVTLTCGSSTGAVTTGHYANWVQQKPGQAPRGLIGGTSNRAPWTPARFSGSLLGGKAALTLSGAQPEDEAEYYCALWYSARWVFGGGTKLTVL | > 20 µg/mL | > 20 µg/mL |  |  | 
huSP34.3.9 Fab-HF (Fab, V domains shown) VH: EVQLVESGGGLVQPGGSLRLSCAASGFTFNTYAMNWVRQAPGKGLEWVGRIRSKYNNYATYYADSVKGRFTISRDDSKNSLYLQMNSLRTEDTAVYYCVRHGNFGHSYVSWFAYWGQGTLVTVSS VL: QAVVTQPPSLTVSPGGTVTLTCGSSTGAVTTGHYANWVQQKPGQAPRGLIGGTNKRAPGVPARFSGSLSGGKAALTISGAQPEDEAEYYCALWYSNLWVFGGGTKLTVL |  |  | 0.39 µg/mL | 0.28 µg/mL | 0.17 µg/mL
huSP34.4.4 Fab-HF (Fab, V domains shown) VH: EVQLVESGGGLVQPGGSLRLSCAASGFTFSTYAMNWVRQAPGKGLEWVGRIRSKYNNYATYYAASVKGRFTISRDDSKNSLYLQMNSLRTEDTAVYYCVRHGNFGHSYVSWFAVWGQGTLVTVSS VL: QAVVTQEPSLTVSPGGTVTLTCGSSTGAVTTSHYANWVQQKPGQAPRGLIGGTSKRAPWTPARFSGSLLGGKAALTLSGAQPEDEAEYYCALWYSALWVFGGGTKLTVL | > 20 µg/mL | > 20 µg/mL |  |  | 
huSP34.11.10 Fab-HF (Fab, V domains shown) VH: EVQLVESGGGLVQPGGSLRLSCAASGFTFSTYAMNWVRQAPGKGLEWVGRIRSKYNNYATYYAASVKGRFTISRDDSKNSLYLQMNSLRTEDTAVYYCVRHGNFGHSYVSWFAYWGQGTLVTVSS VL: QAVVTQPPSLTVSPGGTVTLTCGSSTGAVTTGHYANWVQQKPGQAPRGLIGGTNKRAPGVPARFSGSLSGGKAALTISGAQPEDEAEYYCALWYSNRWVFGGGTKLTVL |  |  | 0.35 µg/mL | 0.25 µg/mL | 0.15 µg/mL
huSP34.3.8 Fab-HF (Fab, V domains shown) VH: EVQLVESGGGLVQPGGSLRLSCAASGFTFNTYAMNWVRQAPGKGLEWVGRIRSKYNNYATYYADSVKGRFTISRDDSKNSLYLQMNSLRTEDTAVYYCVRHGNFGHSYVSWFAYWGQGTLVTVSS VL: QAVVTQEPSLTVSPGGTVTLTCGSSTGAVTTGHYANWVQQKPGQAPRGLIGGTNKRAPGVPARFSGSLLGGKAALTISGAQPEDEAEYYCALWYSNRWVFGGGTKLTVL |  |  | 0.2 µg/mL | 0.15 µg/mL | 0.1 µg/mL
huSP34.11.7 Fab-HF (Fab, V domains shown) VH: EVQLVESGGGLVQPGGSLRLSCAASGFTFSTYAMNWVRQAPGKGLEWVGRIRSKYNNYATYYAASVKGRFTISRDDSKNSLYLQMNSLRTEDTAVYYCVRHGNFGHSYVSWFAYWGQGTLVTVSS VL: QAVVTQEPSLTVSPGGTVTLTCRSSTGAVTTGHYANWVQQKPGQAPRGLIGGTNKRAPGVPARFSGSLLGGKAALTISGAQPEDEAEYYCALWYSNLWVFGGGTKLTVL |  |  | 0.45 µg/mL | 0.32 µg/mL | 0.18 µg/mL
huSP34.11.9 Fab-HF (Fab, V domains shown) VH: EVQLVESGGGLVQPGGSLRLSCAASGFTFSTYAMNWVRQAPGKGLEWVGRIRSKYNNYATYYAASVKGRFTISRDDSKNSLYLQMNSLRTEDTAVYYCVRHGNFGHSYVSWFAYWGQGTLVTVSS VL: QAVVTQPPSLTVSPGGTVTLTCGSSTGAVTTGHYANWVQQKPGQAPRGLIGGTNKRAPGVPARFSGSLSGGKAALTISGAQPEDEAEYYCALWYSNLWVFGGGTKLTVL |  |  | 0.57 µg/mL | 0.4 µg/mL | 0.22 µg/mL
huSP34.5.5 Fab-HF (Fab, V domains shown) VH: EVQLVESGGGLVQPGGSLRLSCAASGFTFSTYAMNWVRQAPGKGLEWVGRIRSKYNNYATYYADSVKGRFTISRDNSKNTLYLQMNSLRAEDTAVYYCVRHGNFGHSYVSWFAVWGQGTLVTVSS VL: QAVVTQEPSLTVSPGGTVTLTCGSSTGAVTTGHYANWVQQKPGQAPRGLIGGTSNRAPWTPARFSGSLLGGKAALTLSGAQPEDEAEYYCALWYSARWVFGGGTKLTVL | > 20 µg/mL | > 20 µg/mL |  |  | 
huSP34.3.10 Fab-HF (Fab, V domains shown) VH: EVQLVESGGGLVQPGGSLRLSCAASGFTFNTYAMNWVRQAPGKGLEWVGRIRSKYNNYATYYADSVKGRFTISRDDSKNSLYLQMNSLRTEDTAVYYCVRHGNFGHSYVSWFAYWGQGTLVTVSS VL: QAVVTQPPSLTVSPGGTVTLTCGSSTGAVTTGHYANWVQQKPGQAPRGLIGGTNKRAPGVPARFSGSLSGGKAALTISGAQPEDEAEYYCALWYSNRWVFGGGTKLTVL |  |  | 0.2 µg/mL | 0.15 µg/mL | 0.09 µg/mL
huSP34.3.7 Fab-HF (Fab, V domains shown) VH: EVQLVESGGGLVQPGGSLRLSCAASGFTFNTYAMNWVRQAPGKGLEWVGRIRSKYNNYATYYADSVKGRFTISRDDSKNSLYLQMNSLRTEDTAVYYCVRHGNFGHSYVSWFAYWGQGTLVTVSS VL: QAVVTQEPSLTVSPGGTVTLTCRSSTGAVTTGHYANWVQQKPGQAPRGLIGGTNKRAPGVPARFSGSLLGGKAALTISGAQPEDEAEYYCALWYSNLWVFGGGTKLTVL |  |  | 0.3 µg/mL | 0.23 µg/mL | 0.15 µg/mL
huSP34.2.5 Fab-HF (Fab, V domains shown) VH: EVQLVESGGGLVQPGGSLRLSCAASGFTFSTYAMNWVRQAPGKGLEWVGRIRSKYNNYATYYAASVKGRFTISRDDSKNSLYLQMNSLKTEDTAMYYCVRHGNFGNSYVSWFAVWGQGTLVTVSS VL: QAVVTQEPSLTVSPGGTVTLTCGSSTGAVTTGHYANWVQQKPGQAPRGLIGGTSNRAPWTPARFSGSLLGGKAALTLSGAQPEDEAEYYCALWYSARWVFGGGTKLTVL | > 20 µg/mL | > 20 µg/mL |  |  | 
huSP34.11.8 Fab-HF (Fab, V domains shown) VH: EVQLVESGGGLVQPGGSLRLSCAASGFTFSTYAMNWVRQAPGKGLEWVGRIRSKYNNYATYYAASVKGRFTISRDDSKNSLYLQMNSLRTEDTAVYYCVRHGNFGHSYVSWFAYWGQGTLVTVSS VL: QAVVTQEPSLTVSPGGTVTLTCGSSTGAVTTGHYANWVQQKPGQAPRGLIGGTNKRAPGVPARFSGSLLGGKAALTISGAQPEDEAEYYCALWYSNRWVFGGGTKLTVL |  |  | 0.3 µg/mL | 0.22 µg/mL | 0.13 µg/mL
huSP34.5.4 Fab-HF (Fab, V domains shown) VH: EVQLVESGGGLVQPGGSLRLSCAASGFTFSTYAMNWVRQAPGKGLEWVGRIRSKYNNYATYYADSVKGRFTISRDNSKNTLYLQMNSLRAEDTAVYYCVRHGNFGHSYVSWFAVWGQGTLVTVSS VL: QAVVTQEPSLTVSPGGTVTLTCGSSTGAVTTSHYANWVQQKPGQAPRGLIGGTSKRAPWTPARFSGSLLGGKAALTLSGAQPEDEAEYYCALWYSALWVFGGGTKLTVL | > 20 µg/mL | > 20 µg/mL |  |  | 
huSP34.5.2 Fab-HF (Fab, V domains shown) VH: EVQLVESGGGLVQPGGSLRLSCAASGFTFSTYAMNWVRQAPGKGLEWVGRIRSKYNNYATYYADSVKGRFTISRDNSKNTLYLQMNSLRAEDTAVYYCVRHGNFGHSYVSWFAVWGQGTLVTVSS VL: QAVVTQEPSLTVSPGGTVTLTCGSSTGAVTTSNYANWVQQKPGQAPRGLIGGTSNRAPWTPARFSGSLLGGKAALTLSGAQPEDEAEYYCALWYSNLWVFGGGTKLTVL | > 20 µg/mL | > 20 µg/mL |  |  | 
huSP34.12.7 Fab-HF (Fab, V domains shown) VH: EVQLVESGGGLVQPGGSLRLSCAASGFTFSTYAMNWVRQAPGKGLEWVARIRSKYNNYATYYAASVKGRFTISRDDSKNSLYLQMNSLRTEDTAVYYCVRHGNFGHSYVSWFAYWGQGTLVTVSS VL: QAVVTQEPSLTVSPGGTVTLTCRSSTGAVTTGHYANWVQQKPGQAPRGLIGGTNKRAPGVPARFSGSLLGGKAALTISGAQPEDEAEYYCALWYSNLWVFGGGTKLTVL |  |  | 0.77 µg/mL | 0.58 µg/mL | 0.39 µg/mL
huSP34.5.1 Fab-HF (Fab, V domains shown) VH: EVQLVESGGGLVQPGGSLRLSCAASGFTFSTYAMNWVRQAPGKGLEWVGRIRSKYNNYATYYADSVKGRFTISRDNSKNTLYLQMNSLRAEDTAVYYCVRHGNFGHSYVSWFAVWGQGTLVTVSS VL: QAVVTQEPSLTVSPGGTVTLTCRSSTGAVTTSNYANWVQQKPGQAPRGLIGGTNKRAPWTPARFSGSLIGDKAALTLSGAQPEDEAEYYCALWYSNLWVFGGGTKLTVL | > 20 µg/mL | > 20 µg/mL |  |  | 
